Legend:
[1] = molecular target: T1, FcγRIIIa extracellular domain with C-terminal His tag (human, UniProt P08637 17-208); assay: SPR (Biacore), antibody captured on antigen-peptide chip, FcγR analyte, relative binding
T1 construct: extracellular domain; also called 3a; FcgRIIIa

FcγRIIa H [2] = molecular target: T2, FcγRIIa H (human, UniProt P12318 34-217); assay: SPR (Biacore); He/Con_2aH divided by He/Con_2b (FcγRIIb) of the same antibody
T2 construct: extracellular domain; Soluble His-tagged extracellular domain expressed in FreeStyle293 cells; also called FcγRIIa type H; FcgRIIa H; not shown: His tag attached to the C terminus
T2 sequence (looked up): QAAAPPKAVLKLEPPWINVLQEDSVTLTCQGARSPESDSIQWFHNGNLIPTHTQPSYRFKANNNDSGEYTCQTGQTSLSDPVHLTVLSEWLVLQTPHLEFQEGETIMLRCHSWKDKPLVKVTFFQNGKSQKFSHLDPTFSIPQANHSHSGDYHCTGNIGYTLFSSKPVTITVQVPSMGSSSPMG
Procedure: The heterodimerized antibodies He Abs in which one of the H chains was introduced with an alteration were assayed for their binding activities to each activating FcγR and inhibitory FcγR according to the method described in Example 4. […] The activating FcγRs in FIGS. 26, 27, 28, and 29 are FcγRIa, FcγRIIa (R), FcγRIIa (H), and FcγRIIIa, respectively.
(§1) Analysis of interaction between objective antibody and the FcγR was carried out using Biacore T100 (GE Healthcare). HBS-EP+ (GE Healthcare) was used as the running buffer, and the measurement temperature was set to 25° C. Chips produced by immobilizing the antigen peptide by the amine coupling method to a Series S Sencor Chip CM5 (GE Healthcare), or alternatively, chips produced by allowing preliminarily biotinylated antigen peptides to interact with and immobilize onto a Series S Sensor Chip SA (certified) (GE Healthcare) were used. Antibodies of interest were captured onto an antigen peptide-immobilized chip, and allowed to interact to each FcγR diluted with running buffer. To regenerate and repeatedly use the chip, the antibodies captured on the chip were washed off by reacting 10 mM glycine-HCl, pH 1.5.

FcγRIIa H [3] = molecular target: T2, FcγRIIa H; assay: SPR (Biacore), captured antibody, FcγR analyte; relative to GpH7-A5/GpH7-B3/GpL16-k0 = 100
Procedure: as §1
(§2) The FcγR-binding activity of each antibody was assessed primarily using as an indicator the FcγR-binding activity and dissociation constant for FcγR.

FcγRIIb = molecular target: T3, FcγRIIb (human, UniProt P31994 43-217); assay: as above
T3 construct: extracellular domain; Soluble His-tagged extracellular domain expressed in FreeStyle293 cells; also called FcgRIIb; 2b; not shown: His tag attached to the C terminus
T3 sequence (looked up): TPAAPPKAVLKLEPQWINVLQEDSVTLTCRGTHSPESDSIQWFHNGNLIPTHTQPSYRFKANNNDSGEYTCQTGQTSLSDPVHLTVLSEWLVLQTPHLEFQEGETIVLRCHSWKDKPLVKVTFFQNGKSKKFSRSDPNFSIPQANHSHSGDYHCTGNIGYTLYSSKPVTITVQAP
Procedure: as §1, §2

T1 sequence (P08637 17-208): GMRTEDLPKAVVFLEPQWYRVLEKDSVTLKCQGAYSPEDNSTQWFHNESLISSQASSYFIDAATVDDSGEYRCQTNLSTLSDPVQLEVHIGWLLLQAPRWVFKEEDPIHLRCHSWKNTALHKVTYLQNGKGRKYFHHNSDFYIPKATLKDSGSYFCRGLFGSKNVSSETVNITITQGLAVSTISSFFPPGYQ

B1: GpH7-A5/GpH7-B3 variant T335_06M/GpL16-k0 (heterodimerized antibody, He Ab) (antibody, human IgG1, kappa)
heavy 1: not shown
heavy 2: not shown
light: DIVMTQSPLSLPVTPGEPASISCQASESLVHSNRNTYLHWYLQKPGQSPQLLIYKVSNRFSGVPDRFSGSGSGTDFTLKISRVEAEDVGVYYCSQNTHVPPTFGQGTKVEIERTVAAPSVFIFPPSDEQLKSGTASVVCLLNNFYPREAKVQWKVDNALQSGNSQESVTEQDSKDSTYSLSSTLTLSKADYEKHKVYACEVTHQGLSSPVTKSFNRGEC
notes: Mutation in one H chain only; also called T335_06M He Ab
[1]
  He/Con_3a: 102 % of GpH7-A5/GpH7-B3/GpL16-k0 (=100)

B2: GpH7-A5/GpH7-B3 variant A327_14T/GpL16-k0 (antibody, human IgG1, kappa)
heavy 1: not shown
heavy 2: not shown
light: B1 light
notes: Heterodimerized anti-glypican-3 IgG1; mutation in the GpH7-B3 H chain only; also called He Ab
FcγRIIa H [2]
  He_2aH/2b: 0.51 ratio
FcγRIIa H [3]
  He/Con_2aH: 45.6 relative (control = 100)
FcγRIIb
  He/Con_2b: 89.4 relative (control = 100)

B3: GpH7-A5/GpH7-B3 variant S324_14T/GpL16-k0 (heterodimerized antibody, He Ab) (antibody, human IgG1, kappa)
heavy 1: not shown
heavy 2: not shown
light: B1 light
notes: Mutation in one H chain only; also called S324_14T He Ab
[1]
  He/Con_3a: 103 % of GpH7-A5/GpH7-B3/GpL16-k0 (=100)

B4: GpH7-A5/GpH7-B3 variant Y300_08L/GpL16-k0 (heterodimerized antibody, He Ab) (antibody, human IgG1, kappa)
heavy 1: not shown
heavy 2: not shown
light: B1 light
notes: Mutation in one H chain only; also called Y300_08L He Ab
[1]
  He/Con_3a: 105 % of GpH7-A5/GpH7-B3/GpL16-k0 (=100)

B5: GpH7-A5/GpH7-B3 variant A327_09D/GpL16-k0 (antibody, human IgG1, kappa)
heavy 1: not shown
heavy 2: not shown
light: B1 light
notes: as for B2
FcγRIIa H [2]
  He_2aH/2b: 0.61 ratio
FcγRIIa H [3]
  He/Con_2aH: 105 relative (control = 100)
FcγRIIb
  He/Con_2b: 172 relative (control = 100)

B6: GpH7-B3 variant T335_09D/GpL16-k0 (homodimerized antibody, Ho Ab) (antibody, human IgG1, kappa)
heavy: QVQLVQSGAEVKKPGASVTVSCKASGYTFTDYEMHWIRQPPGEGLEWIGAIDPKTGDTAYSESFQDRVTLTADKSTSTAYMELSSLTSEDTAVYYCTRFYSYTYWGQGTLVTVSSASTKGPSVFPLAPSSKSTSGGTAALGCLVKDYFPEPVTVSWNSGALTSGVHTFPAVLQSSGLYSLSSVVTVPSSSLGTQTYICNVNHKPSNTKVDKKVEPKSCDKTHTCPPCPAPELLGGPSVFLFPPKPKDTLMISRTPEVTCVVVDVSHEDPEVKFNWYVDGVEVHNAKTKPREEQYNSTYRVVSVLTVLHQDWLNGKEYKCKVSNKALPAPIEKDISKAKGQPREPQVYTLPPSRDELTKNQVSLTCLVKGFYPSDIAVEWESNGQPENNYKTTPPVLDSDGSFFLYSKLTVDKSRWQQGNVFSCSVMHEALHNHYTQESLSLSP
light: B1 light
notes: Mutation in both H chains; also called T335_09D Ho Ab
[1]
  Ho/Con_3a: 114 % of GpH7-B3/GpL16-k0 (=100)

B7: GpH7-A5/GpH7-B3 variant A330_05P/GpL16-k0 (antibody, human IgG1, kappa)
heavy 1: not shown
heavy 2: not shown
light: B1 light
notes: as for B2
FcγRIIa H [2]
  He_2aH/2b: 0.63 ratio
FcγRIIa H [3]
  He/Con_2aH: 85.7 relative (control = 100)
FcγRIIb
  He/Con_2b: 137 relative (control = 100)

B8: GpH7-A5/GpH7-B3 variant S337_01G/GpL16-k0 (heterodimerized antibody, He Ab) (antibody, human IgG1, kappa)
heavy 1: not shown
heavy 2: not shown
light: B1 light
notes: Mutation in one H chain only; also called S337_01G He Ab
[1]
  He/Con_3a: 102 % of GpH7-A5/GpH7-B3/GpL16-k0 (=100)

B9: GpH7-B3 variant Y296_20W/GpL16-k0 (homodimerized antibody, Ho Ab) (antibody, human IgG1, kappa)
heavy: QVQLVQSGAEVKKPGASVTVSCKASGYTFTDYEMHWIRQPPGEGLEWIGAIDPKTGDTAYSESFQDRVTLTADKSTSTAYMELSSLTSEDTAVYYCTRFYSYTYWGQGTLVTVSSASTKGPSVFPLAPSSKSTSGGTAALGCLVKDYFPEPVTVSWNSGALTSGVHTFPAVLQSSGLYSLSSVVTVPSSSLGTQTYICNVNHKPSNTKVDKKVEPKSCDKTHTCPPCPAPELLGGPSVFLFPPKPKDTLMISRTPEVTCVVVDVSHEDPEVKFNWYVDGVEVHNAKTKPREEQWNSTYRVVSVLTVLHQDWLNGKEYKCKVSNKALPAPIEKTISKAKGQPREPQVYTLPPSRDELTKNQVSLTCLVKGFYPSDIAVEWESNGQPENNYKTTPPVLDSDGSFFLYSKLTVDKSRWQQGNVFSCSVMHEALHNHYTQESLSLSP
light: B1 light
notes: Mutation in both H chains; also called Y296_20W Ho Ab
[1]
  Ho/Con_3a: 146 % of GpH7-B3/GpL16-k0 (=100)

B10: GpH7-A5/GpH7-B3 variant L328_05P/GpL16-k0 (antibody, human IgG1, kappa)
heavy 1: not shown
heavy 2: not shown
light: B1 light
notes: as for B2
FcγRIIa H [2]
  He_2aH/2b: 0.7 ratio
FcγRIIa H [3]
  He/Con_2aH: 45.4 relative (control = 100)
FcγRIIb
  He/Con_2b: 65.1 relative (control = 100)

B11: GpH7-A5/GpH7-B3 variant S298_03V/GpL16-k0 (heterodimerized antibody, He Ab) (antibody, human IgG1, kappa)
heavy 1: not shown
heavy 2: not shown
light: B1 light
notes: Mutation in one H chain only; also called S298_03V He Ab
[1]
  He/Con_3a: 109 % of GpH7-A5/GpH7-B3/GpL16-k0 (=100)

B12: GpH7-A5/GpH7-B3 variant A327_10E/GpL16-k0 (antibody, human IgG1, kappa)
heavy 1: not shown
heavy 2: not shown
light: B1 light
notes: as for B2
FcγRIIa H [2]
  He_2aH/2b: 0.65 ratio
FcγRIIa H [3]
  He/Con_2aH: 91.3 relative (control = 100)
FcγRIIb
  He/Con_2b: 140 relative (control = 100)

B13: GpH7-B3 variant Y300_08L/GpL16-k0 (homodimerized antibody, Ho Ab) (antibody, human IgG1, kappa)
heavy: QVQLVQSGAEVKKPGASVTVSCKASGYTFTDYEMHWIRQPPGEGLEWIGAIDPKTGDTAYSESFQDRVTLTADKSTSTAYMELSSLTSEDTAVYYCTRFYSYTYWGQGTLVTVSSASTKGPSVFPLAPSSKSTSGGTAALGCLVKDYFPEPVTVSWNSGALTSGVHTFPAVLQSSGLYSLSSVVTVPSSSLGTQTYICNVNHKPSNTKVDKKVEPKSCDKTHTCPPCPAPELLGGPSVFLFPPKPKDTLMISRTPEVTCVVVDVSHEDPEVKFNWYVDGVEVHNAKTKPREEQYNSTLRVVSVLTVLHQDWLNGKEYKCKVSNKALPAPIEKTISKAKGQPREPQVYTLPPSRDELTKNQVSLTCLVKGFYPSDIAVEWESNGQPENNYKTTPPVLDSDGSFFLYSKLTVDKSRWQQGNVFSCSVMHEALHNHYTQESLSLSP
light: B1 light
notes: Mutation in both H chains; also called Y300_08L Ho Ab
[1]
  Ho/Con_3a: 105 % of GpH7-B3/GpL16-k0 (=100)

B14: GpH7-A5/GpH7-B3 variant L328_04F/GpL16-k0 (antibody, human IgG1, kappa)
heavy 1: not shown
heavy 2: not shown
light: B1 light
notes: as for B2
FcγRIIa H [2]
  He_2aH/2b: 0.33 ratio
FcγRIIa H [3]
  He/Con_2aH: 71.7 relative (control = 100)
FcγRIIb
  He/Con_2b: 219 relative (control = 100)

B15: GpH7-A5/GpH7-B3 variant Y296_20W/GpL16-k0 (heterodimerized antibody, He Ab) (antibody, human IgG1, kappa)
heavy 1: not shown
heavy 2: not shown
light: B1 light
notes: Mutation in one H chain only; also called Y296_20W He Ab
[1]
  He/Con_3a: 135 % of GpH7-A5/GpH7-B3/GpL16-k0 (=100)

B16: GpH7-A5/GpH7-B3 variant A327_18N/GpL16-k0 (antibody, human IgG1, kappa)
heavy 1: not shown
heavy 2: not shown
light: B1 light
notes: as for B2
FcγRIIa H [2]
  He_2aH/2b: 0.59 ratio
FcγRIIa H [3]
  He/Con_2aH: 66.8 relative (control = 100)
FcγRIIb
  He/Con_2b: 113 relative (control = 100)

B17: GpH7-A5/GpH7-B3 variant T335_05P/GpL16-k0 (heterodimerized antibody, He Ab) (antibody, human IgG1, kappa)
heavy 1: not shown
heavy 2: not shown
light: B1 light
notes: Mutation in one H chain only; also called T335_05P He Ab
[1]
  He/Con_3a: 105 % of GpH7-A5/GpH7-B3/GpL16-k0 (=100)

B18: GpH7-A5/GpH7-B3 variant S337_16H/GpL16-k0 (heterodimerized antibody, He Ab) (antibody, human IgG1, kappa)
heavy 1: not shown
heavy 2: not shown
light: B1 light
notes: Mutation in one H chain only; also called S337_16H He Ab
[1]
  He/Con_3a: 108 % of GpH7-A5/GpH7-B3/GpL16-k0 (=100)

B19: GpH7-A5/GpH7-B3 variant S324_06M/GpL16-k0 (heterodimerized antibody, He Ab) (antibody, human IgG1, kappa)
heavy 1: not shown
heavy 2: not shown
light: B1 light
notes: Mutation in one H chain only; also called S324_06M He Ab
[1]
  He/Con_3a: 113 % of GpH7-A5/GpH7-B3/GpL16-k0 (=100)

— patent US20180155451A1 (published 2018)
